According to article PMC9512828:

B1: PTH1R-WT coupled to a C-terminal HaloTag (parathyroid hormone 1 receptor) [not stated] / β-arrestin1 WT C-terminally fused to Nanoluciferase [not stated] (parent)
chain 1: MGDKGTRVFKKASPNGKLTVYLGKRDFVDHIDLVDPVDGVVLVDPEYLKERRVYVTLTCAFRYGREDLDVLGLTFRKDLFVANVQSFPPAPEDKKPLTRLQERLIKKLGEHAYPFTFEIPPNLPCSVTLQPGPEDTGKACGVDYEVKAFCAENLEEKIHKRNSVRLVIRKVQYAPERPGPQPTAETTRQFLMSDKPLHLEASLDKEIYYHGEPISVNVHVTNNTNKTVKKIKISVRQYADICLFNTAQYKCPVAMEEADDTVAPSSTFCKVYTLTPFLANNREKRGLALDGKLKHEDTNLASSTLLREGANREILGIIVSYKVKVKLVVSRGGLLGDLASSDVAVELPFTLMHPKPKEEPPHREVPENETPVDTNLIELDTNDDDIVFEDFARQRLKGMKDDKEEEEDGTGSPQLNNR
chain 2: DADDVMTKEEQIFLLHRAQAQCEKRLKEVLQRPASIMESDKGWTSASTSGKPRKDKASGKLYPESEEDKEAPTGSRYRGRPCLPEWDHILCWPLGAPGEVVAVPCPDYIYDFNHKGHAYRRCDRNGSWELVPGHNRTWANYSECVKFLTNETREREVFDRLGMIYTVGYSVSLASLTVAVLILAYFRRLHCTRNYIHMHLFLSFMLRAVSIFVKDAVLYSGATLDEAERLTEEELRAIAQAPPPPATAAAGYAGCRVAVTFFLYFLATNYYWILVEGLYLHSLIFMAFFSEKKYLWGFTVFGWGLPAVFVAVWVSVRATLANTGCWDLSSGNKKWIIQVPILASIVLNFILFINIVRVLATKLRETNAGRCDTRQQYRKLLKSTLVLMPLFGVHYIVFMATPYTEVSGTLWQVQMHYEMLFNSFQGFFVAIIYCFCNGEVQAEIKKSWSRWTLALDFKRKARSGSSSYSYGPMVSHTSVTNVGPRVGLGLPLSPRLLPTATTNGHPQLPGHAKPGTPALETLETTPPAMAAPKDDGFLNGSCSGLDEEASGPERPPALLQEEWETVM
B2: PTH1R-WT coupled to a C-terminal HaloTag (parathyroid hormone 1 receptor) [not stated] / β-arrestin2-dFLR (finger-loop region Y64 to K78 deleted) C-terminally fused to Nanoluciferase [not stated] (parent)
chain 1: MGEKPGTRVFKKSSPNCKLTVYLGKRDFVDHLDKVDPVDGVVLVDPDYLKDRKVFVTLTCAFRDLFIANYQAFPPTPNPPRPPTRLQERLLRKLGQHAHPFFFTIPQNLPCSVTLQPGPEDTGKACGVDFEIRAFCAKSLEEKSHKRNSVRLVIRKVQFAPEKPGPQPSAETTRHFLMSDRSLHLEASLDKELYYHGEPLNVNVHVTNNSTKTVKKIKVSVRQYADICLFSTAQYKCPVAQVEQDDQVSPSSTFCKVYTITPLLSNNREKRGLALDGKLKHEDTNLASSTIVKEGANKEVLGILVSYRVKVKLVVSRGGDVSVELPFVLMHPKPHDHIALPRPQSAATHPPTLLPSAVPETDAPVDTNLIEFETNYATDDDIVFEDFARLRLKGLKDEDYDDQFC
chain 2: B1 chain 2

Key:
[1] = variants of: B1; experiment: NanoBRET recruitment assay in living cells; settings: with β-arrestin1 WT C-terminally fused to Nanoluciferase, point at the highest PTH(1-34) concentration (about 3 µM), read off a plot
[2] = variants of: B2; experiment: NanoBRET recruitment assay in living cells; settings: with β-arrestin2-dFLR (finger-loop region Y64 to K78 deleted) C-terminally fused to Nanoluciferase, point at the highest PTH(1-34) concentration (about 3 µM), partner is β-arrestin2-dFLR, read off a plot

Row | Variant | response ([1]; HEK-WT + EV, parent: 5.9) [fold change] | response ([1]; HEK-WT cells, parent: 5.9) [fold change] | response ([1]; ΔQ-GRK + EV, parent: 1.4) [fold change] | response ([1]; ΔQ-GRK + GRK2, parent: 5.3) [fold change] | response ([2]; HEK-WT + EV, parent: 1.4) [fold change] | response ([2]; ΔQ-GRK + EV, parent: 1) [fold change] | response ([2]; ΔQ-GRK + GRK2, parent: 1.3) [fold change]
1 | chain 2 DADDVMTKEEQIFLLHRAQAQCEKRLKEVLQRPASIMESDKGWTSASTSGKPRKDKASGKLYPESEEDKEAPTGSRYRGRPCLPEWDHILCWPLGAPGEVVAVPCPDYIYDFNHKGHAYRRCDRNGSWELVPGHNRTWANYSECVKFLTNETREREVFDRLGMIYTVGYSVSLASLTVAVLILAYFRRLHCTRNYIHMHLFLSFMLRAVSIFVKDAVLYSGATLDEAERLTEEELRAIAQAPPPPATAAAGYAGCRVAVTFFLYFLATNYYWILVEGLYLHSLIFMAFFSEKKYLWGFTVFGWGLPAVFVAVWVSVRATLANTGCWDLSSGNKKWIIQVPILASIVLNFILFINIVRVLATKLRETNAGRCDTRQQYRKLLKSTLVLMPLFGVHYIVFMATPYTEVSGTLWQVQMHYEMLFNSFQGFFVAIIYCFCNGEVQAEIKKSWSRWTLALDFKRKARSGSSSYSYGPMVAHAAVANVGPRVGLGLPLSPRLLPTATTNGHPQLPGHAKPGTPALETLETTPPAMAAPKDDGFLNGSCSGLDEEASGPERPPALLQEEWETVM [chain 2 S475A T477A S478A T480A] | 2.9 | 2.9 | 2 | 2.7 | – | – | –
2 | chain 2 DADDVMTKEEQIFLLHRAQAQCEKRLKEVLQRPASIMESDKGWTSASTSGKPRKDKASGKLYPESEEDKEAPTGSRYRGRPCLPEWDHILCWPLGAPGEVVAVPCPDYIYDFNHKGHAYRRCDRNGSWELVPGHNRTWANYSECVKFLTNETREREVFDRLGMIYTVGYSVSLASLTVAVLILAYFRRLHCTRNYIHMHLFLSFMLRAVSIFVKDAVLYSGATLDEAERLTEEELRAIAQAPPPPATAAAGYAGCRVAVTFFLYFLATNYYWILVEGLYLHSLIFMAFFSEKKYLWGFTVFGWGLPAVFVAVWVSVRATLANTGCWDLSSGNKKWIIQVPILASIVLNFILFINIVRVLATKLRETNAGRCDTRQQYRKLLKSTLVLMPLFGVHYIVFMATPYTEVSGTLWQVQMHYEMLFNSFQGFFVAIIYCFCNGEVQAEIKKSWSRWTLALDFKRKARAGAAAYAYGPMVSHTSVTNVGPRVGLGLPLSPRLLPTATTNGHPQLPGHAKPGTPALETLETTPPAMAAPKDDGFLNGSCSGLDEEASGPERPPALLQEEWETVM [chain 2 S463A S465A S466A S467A S469A] | 5.8 | 5.9 | 1.7 | 6.3 | – | – | –
3 | chain 2 DADDVMTKEEQIFLLHRAQAQCEKRLKEVLQRPASIMESDKGWTSASTSGKPRKDKASGKLYPESEEDKEAPTGSRYRGRPCLPEWDHILCWPLGAPGEVVAVPCPDYIYDFNHKGHAYRRCDRNGSWELVPGHNRTWANYSECVKFLTNETREREVFDRLGMIYTVGYSVSLASLTVAVLILAYFRRLHCTRNYIHMHLFLSFMLRAVSIFVKDAVLYSGATLDEAERLTEEELRAIAQAPPPPATAAAGYAGCRVAVTFFLYFLATNYYWILVEGLYLHSLIFMAFFSEKKYLWGFTVFGWGLPAVFVAVWVSVRATLANTGCWDLSSGNKKWIIQVPILASIVLNFILFINIVRVLATKLRETNAGRCDTRQQYRKLLKSTLVLMPLFGVHYIVFMATPYTEVSGTLWQVQMHYEMLFNSFQGFFVAIIYCFCNGEVQAEIKKSWSRWTLALDFKRKARAGAAAYAYGPMVSHTSVTNVGPRVGLGLPLSPRLLPTATTNGHPQLPGHAKPGTPALETLETTPPAMAAPKDDGFLNGSCSGLDEEASGPERPPALLQEEWETVM [chain 2 S463A S465A S466A S467A S469A] | – | – | – | – | 1.4 | 1 | 1.3
